Target: Cas9;AcrIIA5 (Streptococcus pyogenes;virulent phage …, UniProt Q99ZW2;A0A220GHA5 1-1368;1-140, |)
Test: EMSA; 5 mM Mg2+; AcrIIA5 0.4-4 uM supershifts Cas9-sgRNA 0.2 uM; EMSA: 20 mM Tris-HCl pH 7.5, 150 mM KCl, 5 mM MgCl2, 1 mM DTT, 5% glycerol, 25 C, 40 min; sgRNA 200 nM, Cas9 400 nM; 6% PAGE, SYBR Gold
Details: protein: recombinant;recombinant; tags: N-terminal His6 (pET28); copies: 1;1; single strand, guide plus sgRNA scaffold hairpins

B1: Cas9 sgRNA (structured_RNA)
RNA: GGAAAUUAGGUGCGCUUGGCGUUUUAGAGCUAGAAAUAGCAAGUUAAAAUAAGGCUAGUCCGUUAUCAACUUGAAAAAGUGGCACCGAGUCGGUGCUU
Does B1 bind?
Result: binds
